Here are results for 77 sequences from the supplement of paper PMC7877785.

± gives the uncertainty stated by the source.

This data set is described as follows: self-splicing fitness, log relative to wild type (ln ratio); higher = more splicing; Tetrahymena group I intron in knt gene, E. coli kanamycin selection, DiMSum; sequences stand for … in CUCUCU…GGAGGGAAAAGUUAUCAGGCAUGCACCUGGUAGCUAGUCUUUAAACCAAUAGAUUGCAUCGGUUUAAAAGGCAAGACCGUCAAAUUGCGGGAAAGGGGUCAACAGCCGUUCAGUACCAAGUCUCAGGGGAAACUUUGAGAUGGCCUUGCAAAGGGUAUGGUAAUAAGCUGACGGACAUGGUCCUAACCACGCAGCCAAGUCCUAAGUCAACAGAUCUUCUGUUGAUAUGGAUGCAGUUCACAGACUAAAUGUCGGUCGGGGAAGAUGUAUUCUUCUCAUAAGAUAUAGUCGGACCUCUCCUUAAUGGGAGCUAGCGGAUGAAGUGAUGCAACACUGGAGCCGCUGGGAACUAAUUUGUAUGCGAAAGUAUAUUGAUUAGUUUUGGAGUACUCGUGGUCG
The procedure, abridged: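 Library with all eight P1ex-region intron nucleotides randomised, intron inside the knt kanamycin-resistance gene on pET-22b(+), in E. coli BL21(DE3). Cells grew overnight at 37°C or 30°C on LB agar with or without 25 μg/mL kanamycin (plus 100 μg/mL carbenicillin, 50 μM IPTG, 0.2% rhamnose), in six replicate transformations. Pooled colonies were amplicon-sequenced on Illumina HiSeq 2500. DiMSum fitness is the error-weighted combination of wild-type-normalised replicate fold changes, kanamycin versus none.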

With UGUAAGCAAUAUUACGAGGU, the “self-splicing fitness (ln)” value reads like this: (30 °C) -4.29 ± 0.36; (37 °C) -2.63 ± 0.28. For CGCUAGCAAUAUUACGACGG, the “self-splicing fitness (ln)” value is -0.226 ± 0.11 (30 °C) and 0.553 ± 0.14 (37 °C). Taken in the same sequence, the figures for GUUAAGCAAUAUUACGCGCG were -0.983 ± 0.09 and 0.0623 ± 0.14.

AGUCAGCAAUAUUACGAGCC: the “self-splicing fitness (ln)” value runs as follows: (30 °C) -0.0313 ± 0.25; (37 °C) 0.0229 ± 0.3. Consider AGCCAGCAAUAUUACGGGAC, for which the “self-splicing fitness (ln)” value (30 °C) was -2.67 ± 0.22 and the “self-splicing fitness (ln)” value (37 °C) was -2.7 ± 0.27. Taken in the same sequence, the figures for UUUUAGCAAUAUUACGGAGG were -2.86 ± 0.27 and -1.48 ± 0.22.

With ACAUAGCAAUAUUACGGUUC, the “self-splicing fitness (ln)” value is -2.93 ± 0.17 (30 °C) and -2.51 ± 0.24 (37 °C). The matching figures for GGCAAGCAAUAUUACGCGAA: -0.953 ± 0.12 and 0.499 ± 0.13. Taken in the same sequence, the figures for UCUCAGCAAUAUUACGUGGA were -3.7 ± 0.29 and -1.05 ± 0.12. For the sequence UCCAAGCAAUAUUACGUUUC, the “self-splicing fitness (ln)” value by setting is: (30 °C) -3.37 ± 0.2; (37 °C) -2.76 ± 0.26.

Take AUCAAGCAAUAUUACGCGUU: the “self-splicing fitness (ln)” value runs as follows: (30 °C) -2.66 ± 0.089; (37 °C) -0.858 ± 0.095. Taken in the same sequence, the figures for UUGGAGCAAUAUUACGUCUA were -1.99 ± 0.34 and -2.49 ± 0.3. The matching figures for AGACAGCAAUAUUACGAUCU: -2.62 ± 0.12 and -0.863 ± 0.1.

For the sequence AUGAAGCAAUAUUACGGUUU, the “self-splicing fitness (ln)” value (30 °C) is -1.99 ± 0.088 and the “self-splicing fitness (ln)” value (37 °C) is -0.875 ± 0.091.

Regarding CCCUAGCAAUAUUACGUCAC, the “self-splicing fitness (ln)” value (30 °C) is -2.55 ± 0.24 and the “self-splicing fitness (ln)” value (37 °C) is -1.44 ± 0.34. The matching figures for UCCCAGCAAUAUUACGGCCU: -2.43 ± 0.16 and -0.901 ± 0.17. Taken in the same sequence, the figures for CGGAAGCAAUAUUACGCCCA were -0.0821 ± 0.13 and 0.194 ± 0.2. Take GGUAAGCAAUAUUACGCAAC: the “self-splicing fitness (ln)” value (37 °C) was -1.35 ± 0.38. In the case of CGACAGCAAUAUUACGUUAC, the “self-splicing fitness (ln)” value by setting is: (30 °C) -3.39 ± 0.17; (37 °C) -2.29 ± 0.2. On to CUGGAGCAAUAUUACGUACA, for which the “self-splicing fitness (ln)” value (37 °C) is -1.28 ± 0.48. Consider CUACAGCAAUAUUACGCGCC, for which the “self-splicing fitness (ln)” value reads like this: (30 °C) -3.98 ± 0.35; (37 °C) -2.3 ± 0.41. UUUUAGCAAUAUUACGAUGC: where the note is “37 °C”, the “self-splicing fitness (ln)” value is -2.46 ± 0.38. Regarding AGGAAGCAAUAUUACGUUCU, the “self-splicing fitness (ln)” value reads like this: (30 °C) -3.47 ± 0.28; (37 °C) -1.59 ± 0.17. The matching figures for AAUCAGCAAUAUUACGUGCA: -0.181 ± 0.067 and 0.221 ± 0.084.

Take ACACAGCAAUAUUACGGGAA: the “self-splicing fitness (ln)” value by setting is: (30 °C) -2.99 ± 0.22; (37 °C) -1.79 ± 0.14. Taken in the same sequence, the figures for UUCGAGCAAUAUUACGACGA were -0.356 ± 0.3 and -0.0591 ± 0.21. Taken in the same sequence, the figures for UUUGAGCAAUAUUACGCUGG were -2.04 ± 0.11 and -2.01 ± 0.14. Turning to GACGAGCAAUAUUACGGGUG, the “self-splicing fitness (ln)” value by setting is: (30 °C) -4.16 ± 0.31; (37 °C) -1.89 ± 0.16. On to UAGAAGCAAUAUUACGACAU, for which the “self-splicing fitness (ln)” value (30 °C) is -1.569 ± 0.014 and the “self-splicing fitness (ln)” value (37 °C) is -0.76 ± 0.033.

For the sequence UACAAGCAAUAUUACGUCAU, the “self-splicing fitness (ln)” value is -3.94 ± 0.16 (30 °C) and -1.05 ± 0.096 (37 °C). The matching figures for GAUCAGCAAUAUUACGCUGU: -3.03 ± 0.21 and -2.38 ± 0.16. The matching figures for GCCUAGCAAUAUUACGUCAU: -2.73 ± 0.2 and -1.4 ± 0.17. Turning to CGUAAGCAAUAUUACGCCUC, the “self-splicing fitness (ln)” value is -4.31 ± 0.47 (30 °C) and -1.44 ± 0.44 (37 °C). Taken in the same sequence, the figures for CGCUAGCAAUAUUACGACAU were -3.31 ± 0.022 and -2.06 ± 0.036. Consider CUACAGCAAUAUUACGCCUA, for which the “self-splicing fitness (ln)” value (30 °C) is -2.46 ± 0.18 and the “self-splicing fitness (ln)” value (37 °C) was -3.31 ± 0.28. Taken in the same sequence, the figures for UGGCAGCAAUAUUACGCUAU were -3.89 ± 0.25 and -1.8 ± 0.2. Taken in the same sequence, the figures for UGCAAGCAAUAUUACGGAUA were -1.68 ± 0.11 and -0.698 ± 0.12. The matching figures for AGGCAGCAAUAUUACGAGGU: -2.14 ± 0.15 and -2.68 ± 0.26. UGCAAGCAAUAUUACGCACG: the “self-splicing fitness (ln)” value (30 °C) was -2.14 ± 0.3 and the “self-splicing fitness (ln)” value (37 °C) was -0.955 ± 0.13.

Consider CAAUAGCAAUAUUACGAGCU, for which the “self-splicing fitness (ln)” value is -4.39 ± 0.42 (30 °C) and -3.5 ± 0.42 (37 °C). The matching figures for CCAAAGCAAUAUUACGGCGG: -3.8 ± 0.15 and -2.48 ± 0.16. On to UAAUAGCAAUAUUACGAAAU, for which the “self-splicing fitness (ln)” value (37 °C) was -2.07 ± 0.36. Take CCUUAGCAAUAUUACGAAGG: the “self-splicing fitness (ln)” value (30 °C) was -3.53 ± 0.32. CAUGAGCAAUAUUACGGCCG: the “self-splicing fitness (ln)” value is -1.25 ± 0.12 (30 °C) and -0.62 ± 0.16 (37 °C). The matching figures for AUAAAGCAAUAUUACGUCGU: -0.554 ± 0.046 and 0.314 ± 0.064. The matching figures for UGAAAGCAAUAUUACGGUAG: -0.656 ± 0.06 and -0.113 ± 0.088. Taken in the same sequence, the figures for GGCAAGCAAUAUUACGUUAU were -0.941 ± 0.065 and -0.757 ± 0.071.

Turning to GCCCAGCAAUAUUACGUGGA, the “self-splicing fitness (ln)” value is, setting by setting: (30 °C) -0.734 ± 0.063; (37 °C) 0.199 ± 0.076. Taken in the same sequence, the figures for CGAGAGCAAUAUUACGAGAG were -3.58 ± 0.35 and -0.712 ± 0.31.

Regarding AGAAAGCAAUAUUACGUAAG, the “self-splicing fitness (ln)” value is -1.61 ± 0.084 (30 °C) and -0.0907 ± 0.095 (37 °C). The matching figures for GGACAGCAAUAUUACGGAAC: -0.76 ± 0.1 and -0.102 ± 0.11. The matching figures for CGAUAGCAAUAUUACGGAUU: -2.89 ± 0.11 and -2.61 ± 0.2.

Consider GACCAGCAAUAUUACGGGCG, for which the “self-splicing fitness (ln)” value is, setting by setting: (30 °C) 0.17 ± 0.059; (37 °C) 0.374 ± 0.078. Taken in the same sequence, the figures for AGAUAGCAAUAUUACGAACA were -1.15 ± 0.11 and -0.00294 ± 0.12. Taken in the same sequence, the figures for GAUUAGCAAUAUUACGGCUC were 0.285 ± 0.096 and 0.441 ± 0.12.

Turning to GGGAAGCAAUAUUACGACUU, the “self-splicing fitness (ln)” value by setting is: (30 °C) 0.323 ± 0.11; (37 °C) -0.202 ± 0.15. Taken in the same sequence, the figures for CAAUAGCAAUAUUACGUAGA were -3.48 ± 0.16 and -2.37 ± 0.17. Taken in the same sequence, the figures for CACGAGCAAUAUUACGAGUU were -4.28 ± 0.18 and -2.2 ± 0.12.

As to GAAUAGCAAUAUUACGUAGA, the “self-splicing fitness (ln)” value (30 °C) was -3.35 ± 0.15 and the “self-splicing fitness (ln)” value (37 °C) was -1.55 ± 0.11. Regarding UUUUAGCAAUAUUACGUAUC, under “37 °C”, the “self-splicing fitness (ln)” value is -2.56 ± 0.33. Regarding UGCAAGCAAUAUUACGCGAG, the “self-splicing fitness (ln)” value is, setting by setting: (30 °C) -3.25 ± 0.15; (37 °C) -2.36 ± 0.16.

With GGCUAGCAAUAUUACGACUC, the “self-splicing fitness (ln)” value (30 °C) was 0.93 ± 0.14 and the “self-splicing fitness (ln)” value (37 °C) was 0.604 ± 0.26.

Regarding UAAAAGCAAUAUUACGGCUU, the “self-splicing fitness (ln)” value was -0.922 ± 0.088 (30 °C) and -0.468 ± 0.11 (37 °C). Taken in the same sequence, the figures for CUACAGCAAUAUUACGGACA were -1.52 ± 0.39 and -2.47 ± 0.38.

GGAUAGCAAUAUUACGACCC: the “self-splicing fitness (ln)” value (30 °C) is -0.96 ± 0.23. As to AGUCAGCAAUAUUACGUCGU, the “self-splicing fitness (ln)” value reads like this: (30 °C) -0.476 ± 0.049; (37 °C) -0.105 ± 0.064. The matching figures for CCACAGCAAUAUUACGAAUA: -2.57 ± 0.15 and -2.59 ± 0.19. Consider AUUCAGCAAUAUUACGCAUC, for which the “self-splicing fitness (ln)” value is, setting by setting: (30 °C) -2.75 ± 0.16; (37 °C) -0.806 ± 0.16. Taken in the same sequence, the figures for AUUAAGCAAUAUUACGAAAC were -3.37 ± 0.16 and -1.6 ± 0.15.

As for CUAGAGCAAUAUUACGUGGU, the “self-splicing fitness (ln)” value is -4.21 ± 0.24 (30 °C) and -3.52 ± 0.33 (37 °C). The matching figures for AGCCAGCAAUAUUACGAUCG: -3.74 ± 0.26 and -1.69 ± 0.15.

In the case of GAUCAGCAAUAUUACGAGAU, the “self-splicing fitness (ln)” value reads like this: (30 °C) -3 ± 0.15; (37 °C) -1.55 ± 0.13.

As to CAAGAGCAAUAUUACGGCGC, the “self-splicing fitness (ln)” value reads like this: (30 °C) -3.56 ± 0.27; (37 °C) -2.17 ± 0.26.

In the case of CCACAGCAAUAUUACGGAUU, the “self-splicing fitness (ln)” value (30 °C) is -3.49 ± 0.11 and the “self-splicing fitness (ln)” value (37 °C) was -3.12 ± 0.15. Taken in the same sequence, the figures for UCAAAGCAAUAUUACGCUAG were -1.25 ± 0.076 and -1.29 ± 0.1. Consider UUUAAGCAAUAUUACGCAUA, for which the “self-splicing fitness (ln)” value is -3.17 ± 0.2 (30 °C) and -0.829 ± 0.14 (37 °C). Taken in the same sequence, the figures for GAAUAGCAAUAUUACGUGAU were -3.48 ± 0.17 and -1.27 ± 0.11.
